Experimental data from paper PMC4997581.

Experiments:
Experiment in all cases: co-IP
[1] = biological target: Cyclin T1 (human (endogenous in 293T and HFF)) (UniProt O60563)
[2] = biological target: Cyclin H (human (endogenous in 293T and HFF)) (UniProt P51946)
[3] = biological target: Cyclin B1 (human (endogenous in 293T and HFF)) (UniProt P14635)
Sequence of Cyclin B1 (human (endogenous in 293T and HFF)) (P14635 whole entry): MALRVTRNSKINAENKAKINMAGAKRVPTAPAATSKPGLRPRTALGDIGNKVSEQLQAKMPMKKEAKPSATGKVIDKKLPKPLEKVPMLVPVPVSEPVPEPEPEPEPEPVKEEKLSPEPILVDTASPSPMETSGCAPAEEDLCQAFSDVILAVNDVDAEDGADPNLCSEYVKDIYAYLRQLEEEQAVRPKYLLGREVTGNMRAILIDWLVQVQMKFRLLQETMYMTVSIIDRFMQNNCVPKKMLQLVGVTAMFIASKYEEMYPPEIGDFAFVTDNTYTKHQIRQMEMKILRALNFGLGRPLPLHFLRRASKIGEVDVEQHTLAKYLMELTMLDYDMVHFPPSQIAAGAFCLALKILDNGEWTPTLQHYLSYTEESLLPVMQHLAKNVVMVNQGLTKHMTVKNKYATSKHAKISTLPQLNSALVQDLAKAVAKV

Sequence of Cyclin T1 (human (endogenous in 293T and HFF)) (O60563 whole entry): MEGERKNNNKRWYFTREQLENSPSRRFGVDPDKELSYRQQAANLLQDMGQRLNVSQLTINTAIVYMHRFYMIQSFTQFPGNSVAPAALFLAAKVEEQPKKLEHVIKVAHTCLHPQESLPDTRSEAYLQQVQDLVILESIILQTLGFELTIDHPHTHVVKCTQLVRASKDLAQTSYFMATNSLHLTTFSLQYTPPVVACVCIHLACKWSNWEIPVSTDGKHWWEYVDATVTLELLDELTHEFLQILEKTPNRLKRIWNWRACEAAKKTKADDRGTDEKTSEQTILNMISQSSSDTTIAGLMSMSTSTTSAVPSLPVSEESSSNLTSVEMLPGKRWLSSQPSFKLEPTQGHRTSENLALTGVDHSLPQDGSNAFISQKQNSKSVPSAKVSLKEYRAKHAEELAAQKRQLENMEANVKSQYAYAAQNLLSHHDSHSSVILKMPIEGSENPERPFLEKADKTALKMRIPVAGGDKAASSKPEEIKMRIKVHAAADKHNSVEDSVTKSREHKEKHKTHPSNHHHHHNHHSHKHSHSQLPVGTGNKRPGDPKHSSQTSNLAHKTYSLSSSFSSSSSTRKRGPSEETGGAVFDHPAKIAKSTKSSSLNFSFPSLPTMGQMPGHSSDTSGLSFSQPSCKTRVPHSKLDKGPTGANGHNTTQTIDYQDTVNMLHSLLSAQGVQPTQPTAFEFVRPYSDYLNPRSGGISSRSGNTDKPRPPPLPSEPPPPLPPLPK
Sequence of Cyclin H (human (endogenous in 293T and HFF)) (P51946 whole entry): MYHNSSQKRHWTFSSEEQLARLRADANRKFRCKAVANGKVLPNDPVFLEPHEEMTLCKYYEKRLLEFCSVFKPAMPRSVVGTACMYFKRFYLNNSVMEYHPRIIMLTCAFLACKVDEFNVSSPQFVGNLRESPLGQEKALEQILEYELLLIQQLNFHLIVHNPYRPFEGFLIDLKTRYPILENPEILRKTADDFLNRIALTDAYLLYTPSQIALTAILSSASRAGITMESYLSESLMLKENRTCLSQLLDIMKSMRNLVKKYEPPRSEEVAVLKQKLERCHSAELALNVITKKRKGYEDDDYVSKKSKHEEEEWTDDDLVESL

Row | Substance | pUL97 co-IP Western blot signal relative to cyclin B1 [1] | pUL97 co-IP Western blot signal relative to cyclin B1 [2] | pUL97 co-IP Western blot signal relative to cyclin B1 [3]
1 | HCMV protein kinase pUL97, Flag-tagged (pUL97-Flag) (from UniProt P16788 1-707) (natural protein) | 9% | 4% | 
2 | pUL97 stably expressed in transduced HFFs (from UniProt P16788 1-707) (natural protein) | 42% |  | 
3 | Protein kinase pUL97 of HCMV AD169, in infected cells (natural protein) | 77% | 160% | 100%
